# Reference: the Human Domainome abundance scans (Beltran et al. 2025)
# ± gives the uncertainty stated by the source.
# B1: V(D)J recombination-activating protein 2, residues 415 to 491; numbered along this chain, P55895 (parent)
# chain: YWITCCPTCDVDINTWVPFYSTELNKPAMIYCSHGDGHWVHAQCMDLAERTLIHLSAGSNKYYCNEHVEIARALHTP
# Variants of: B1
# Assay: abundance fitness (aPCA) (normalised: wild type 0, dead -1); higher = more abundant; growth selection in yeast, the domain comes from the species named
# Conditions: Homo sapiens
row,Variant,abundance fitness
1,YWICCCPTCDVDINTWVPFYSTELNKPAMIYCSHGDGHWVHAQCMDLAERTLIHLSAGSNKYYCNEHVEIARALHTP [T4C],-0.119 ± 0.1
2,YWIFCCPTCDVDINTWVPFYSTELNKPAMIYCSHGDGHWVHAQCMDLAERTLIHLSAGSNKYYCNEHVEIARALHTP [T4F],-0.101 ± 0.1
3,YWIRCCPTCDVDINTWVPFYSTELNKPAMIYCSHGDGHWVHAQCMDLAERTLIHLSAGSNKYYCNEHVEIARALHTP [T4R],-0.013 ± 0.035
4,YWIECCPTCDVDINTWVPFYSTELNKPAMIYCSHGDGHWVHAQCMDLAERTLIHLSAGSNKYYCNEHVEIARALHTP [T4E],-0.057 ± 0.063
5,YWITCCPTCDVDINTWVPFYSTELNKPAMIYCSHGDGHWVDAQCMDLAERTLIHLSAGSNKYYCNEHVEIARALHTP [H41D],-0.785 ± 0.48
6,YWITCCPTCDVDINTWVPFYSTELNSPAMIYCSHGDGHWVHAQCMDLAERTLIHLSAGSNKYYCNEHVEIARALHTP [K26S],-0.174 ± 0.28
7,YWITCCPTCDVDINTWVPFYSTELNEPAMIYCSHGDGHWVHAQCMDLAERTLIHLSAGSNKYYCNEHVEIARALHTP [K26E],-0.129 ± 0.44
8,YWITCCPTCDVDINTWVPFYSTEYNKPAMIYCSHGDGHWVHAQCMDLAERTLIHLSAGSNKYYCNEHVEIARALHTP [L24Y],-0.337 ± 0.32
9,YWITCCPTCDVDINTWVPFYSTELNKPAMIYCSFGDGHWVHAQCMDLAERTLIHLSAGSNKYYCNEHVEIARALHTP [H34F],-0.301 ± 0.18
10,YWITCCPTCDVDINTWVPFYSTELNKPAMIYCSHGDGHWVHAQCMDLAERTLIHLSAGSNKQYCNEHVEIARALHTP [Y62Q],-0.312 ± 0.12
11,YWITCCPTCDVDINTWVPFYSTELNKPAMIYCSHGDGHWVHAQCMDLAERTLIHLSAGSTKYYCNEHVEIARALHTP [N60T],-0.022 ± 0.063
12,YWITCCPTCDVDINTWVPFYSTELNKPAMIYCSHGDGHWVHAQCMMLAERTLIHLSAGSNKYYCNEHVEIARALHTP [D46M],0.071 ± 0.07
13,YWITCCPTCDVDINTWVIFYSTELNKPAMIYCSHGDGHWVHAQCMDLAERTLIHLSAGSNKYYCNEHVEIARALHTP [P18I],-0.892 ± 0.29
14,YNITCCPTCDVDINTWVPFYSTELNKPAMIYCSHGDGHWVHAQCMDLAERTLIHLSAGSNKYYCNEHVEIARALHTP [W2N],0.12 ± 0.31
15,YWITCCPTCDVDINTWVPFYSTELNKPSMIYCSHGDGHWVHAQCMDLAERTLIHLSAGSNKYYCNEHVEIARALHTP [A28S],-0.035 ± 0.15
16,YWITCCPTCDVDINTWVPFYSTELNKPAMIYCSHGDGHWVHAQCMDLAERTLIHLSAGSNKYYCNEHVEIARALHSP [T76S],-0.046 ± 0.077
17,YWITCCPTCDVDINTWVPRYSTELNKPAMIYCSHGDGHWVHAQCMDLAERTLIHLSAGSNKYYCNEHVEIARALHTP [F19R],-0.145 ± 0.12
18,YWITCCPTCDVDINTWVPEYSTELNKPAMIYCSHGDGHWVHAQCMDLAERTLIHLSAGSNKYYCNEHVEIARALHTP [F19E],-0.179 ± 0.16
19,YWITCCPTCDVDINTWVPFYSTELNKPAMIYCSHGDGHWVHAQCMDLAERTLIHLSAMSNKYYCNEHVEIARALHTP [G58M],-0.11 ± 0.2
20,YWITCCPTCDVDINTWVPFYSTELNKPAMIYCSHGDGHWVHAQCMDLAERTLIHLSALSNKYYCNEHVEIARALHTP [G58L],0.025 ± 0.078
21,YWITCCPTCDVDINTWVPFYSTELNKPAMIYCSHGDGHWVHAQCMDLAERILIHLSAGSNKYYCNEHVEIARALHTP [T51I],-0.138 ± 0.12
22,YWITCCPTCDVDINTWVPFYSTELNKPAMIYCSHGDGHWVHAQCMDLAERSLIHLSAGSNKYYCNEHVEIARALHTP [T51S],-0.039 ± 0.073
23,YWITCGPTCDVDINTWVPFYSTELNKPAMIYCSHGDGHWVHAQCMDLAERTLIHLSAGSNKYYCNEHVEIARALHTP [C6G],-0.024 ± 0.39
24,YWITCCPTCDVDINTWVPFYSTELNKPAMIYCSHGDGHWVHAQCMDLAERTLIHLSAGSNKYYCNEHVEIARAQHTP [L74Q],-0.062 ± 0.25

row,Variant,abundance fitness
1,YWITCCPTCDVDINTWVPFYSTELNKPAMIYCSHGDGHWVHAQCMDLAERTLIHLSAGSNKYYCNEHVENARALHTP [I70N],-0.169 ± 0.18
2,YWITCCPTCDVDINTWVPFYSTELNKPARIYCSHGDGHWVHAQCMDLAERTLIHLSAGSNKYYCNEHVEIARALHTP [M29R],0.055 ± 0.23
3,YWITCCPTCDVDINTWVPFYSTELNKPAGIYCSHGDGHWVHAQCMDLAERTLIHLSAGSNKYYCNEHVEIARALHTP [M29G],-0.377 ± 0.23
4,YWITCCPTCDVDINTWVPFYSTELNKPAMIYCSHGDGHWVHAQCMDLAELTLIHLSAGSNKYYCNEHVEIARALHTP [R50L],0.013 ± 0.051
5,YWITCCPTCDVDINTWVPFYSTELNKPAMIYCSHGDGHWVHAQCMDLAERTLIHLSAGRNKYYCNEHVEIARALHTP [S59R],-0.115 ± 0.059
6,YWITCCPTYDVDINTWVPFYSTELNKPAMIYCSHGDGHWVHAQCMDLAERTLIHLSAGSNKYYCNEHVEIARALHTP [C9Y],-0.739 ± 0.33
7,YWITCCPTCDVDINTWVPFYSTELNKPAMIYRSHGDGHWVHAQCMDLAERTLIHLSAGSNKYYCNEHVEIARALHTP [C32R],-0.967 ± 0.14
8,YWITCCPTCDVDINTWVPFYSLELNKPAMIYCSHGDGHWVHAQCMDLAERTLIHLSAGSNKYYCNEHVEIARALHTP [T22L],-0.179 ± 0.11
9,YWITCCPTCDVDINTWVPFYSGELNKPAMIYCSHGDGHWVHAQCMDLAERTLIHLSAGSNKYYCNEHVEIARALHTP [T22G],-0.353 ± 0.17
10,YWITCCPTCDVDINTWVPFYSTELNKPAMIYCSHGDGHWVHAQCMDLAERTLIHLSAGSNKYYCNEHVPIARALHTP [E69P],0.358 ± 0.38
11,YWITCCPTCDVDINTWVPFYSTELNKPAMIYCSHGAGHWVHAQCMDLAERTLIHLSAGSNKYYCNEHVEIARALHTP [D36A],-0.177 ± 0.1
12,YWITCCPTCDVDINTWVPFYSTELNKPAMIYCSHGDGHWVHAQCMDLLERTLIHLSAGSNKYYCNEHVEIARALHTP [A48L],0.001 ± 0.062
13,YWITCCPTCDVDINTWVPFYSTELNKPAMIYCSHGDGHWVHAQCTDLAERTLIHLSAGSNKYYCNEHVEIARALHTP [M45T],-0.395 ± 0.099
14,YWITCCPTCDVDINTWVPFYCTELNKPAMIYCSHGDGHWVHAQCMDLAERTLIHLSAGSNKYYCNEHVEIARALHTP [S21C],0.015 ± 0.16
15,YWITCCPTCDVDINTWVPFYVTELNKPAMIYCSHGDGHWVHAQCMDLAERTLIHLSAGSNKYYCNEHVEIARALHTP [S21V],-0.28 ± 0.12
16,TWITCCPTCDVDINTWVPFYSTELNKPAMIYCSHGDGHWVHAQCMDLAERTLIHLSAGSNKYYCNEHVEIARALHTP [Y1T],-0.098 ± 0.25
17,MWITCCPTCDVDINTWVPFYSTELNKPAMIYCSHGDGHWVHAQCMDLAERTLIHLSAGSNKYYCNEHVEIARALHTP [Y1M],-0.041 ± 0.089
18,YWGTCCPTCDVDINTWVPFYSTELNKPAMIYCSHGDGHWVHAQCMDLAERTLIHLSAGSNKYYCNEHVEIARALHTP [I3G],-0.021 ± 0.033
19,YWITCCPTCDVDINTWVPFYSTELNKPAMIYCSHGDGHWVHAQCMDLAERTLIHLSAGSNKYYCNSHVEIARALHTP [E66S],-0.039 ± 0.074
20,YWITCCPTCDVDINTWEPFYSTELNKPAMIYCSHGDGHWVHAQCMDLAERTLIHLSAGSNKYYCNEHVEIARALHTP [V17E],0.046 ± 0.33
21,YWITCCPTCDVDINTWVPFYSTELNKPAMIYCSHGDGHWVHAQCMDLAERTLIHLSAGSNKYYCNEHVEINRALHTP [A71N],-0.121 ± 0.1
22,YWITCCPTCDVDINTWVPFYSTELNKPAMIYCSHGDGHWVHAQCMDLAERTLIHLSAGSNKYYCNEHVEIPRALHTP [A71P],-0.03 ± 0.079
23,YWITCCPTCDVDINTWVPFYSTELNKPAMIYCSHGDGHDVHAQCMDLAERTLIHLSAGSNKYYCNEHVEIARALHTP [W39D],-0.536 ± 0.093
24,YWITCCPTCDVDINTWVPFYSTELNKPAMIYCSHGDGHWVHAQCMDLAERTLIHLSIGSNKYYCNEHVEIARALHTP [A57I],0.216 ± 0.29

row,Variant,abundance fitness
1,YWITCCPTCDVDINTWVPFYSTELNKPAMIYCSHGDGHWVHAQCMDLAERTLIHLSVGSNKYYCNEHVEIARALHTP [A57V],-0.14 ± 0.077
2,YWITCCPTCDVDINTWVPFYSTELNKPAMIYCSHGDGHWVHAQCMDLAERTLIHLSCGSNKYYCNEHVEIARALHTP [A57C],-0.124 ± 0.11
3,YWITCCPTCDVDINTWVPFYSTELNKPAMIYCQHGDGHWVHAQCMDLAERTLIHLSAGSNKYYCNEHVEIARALHTP [S33Q],-0.091 ± 0.063
4,YWITCCPTCDVDINTWVPFYSTELNKPAMIYCKHGDGHWVHAQCMDLAERTLIHLSAGSNKYYCNEHVEIARALHTP [S33K],-0.132 ± 0.067
5,YWITCCPTCDVDINTWVPFYSTELNKPAMIYCSHGDGHWVHAQCMDLAERTLINLSAGSNKYYCNEHVEIARALHTP [H54N],-0.061 ± 0.1
6,YWITCCPTCDVDINTWVPFYSTELNKPAMIYCSHGDGHWVHAQCMDLAERTLIHLSAGSNKYYCNEHVEIARMLHTP [A73M],-0.121 ± 0.1
7,YWITCCPTCDVDINTWVPFYSTELNKPAMIACSHGDGHWVHAQCMDLAERTLIHLSAGSNKYYCNEHVEIARALHTP [Y31A],-0.193 ± 0.074
8,YWITCCPTCDVDINTWVPFYSTELNKPAMITCSHGDGHWVHAQCMDLAERTLIHLSAGSNKYYCNEHVEIARALHTP [Y31T],-0.197 ± 0.079
9,YWITCCPTCDVDINTWVPFYSTELNKPAMIYCSHGDGHWVHAQCMDLAERTLIHLSAGSNKYYCNEHVEIARALGTP [H75G],0.087 ± 0.11
10,YWITCCPTCDVDIATWVPFYSTELNKPAMIYCSHGDGHWVHAQCMDLAERTLIHLSAGSNKYYCNEHVEIARALHTP [N14A],-0.509 ± 0.4
11,YWITCCPTCDVDIMTWVPFYSTELNKPAMIYCSHGDGHWVHAQCMDLAERTLIHLSAGSNKYYCNEHVEIARALHTP [N14M],-0.01 ± 0.32
12,YWITCCPTCDVDINTWVPFYSTELTKPAMIYCSHGDGHWVHAQCMDLAERTLIHLSAGSNKYYCNEHVEIARALHTP [N25T],-0.05 ± 0.17
13,YWITCCPTCDVDINTWVPFYSTELNKPAMIYCSHGDGHWVHAQCMDLAERTLIHLSAGSNKYKCNEHVEIARALHTP [Y63K],-0.005 ± 0.096
14,YWITCCPTCDVDINTWVPFYSTELNKPAMIYCSHGDGHWVHAQCMDLAERTLIHLSAGSNKYHCNEHVEIARALHTP [Y63H],-0.012 ± 0.14
15,YWITCCPTCDVDINRWVPFYSTELNKPAMIYCSHGDGHWVHAQCMDLAERTLIHLSAGSNKYYCNEHVEIARALHTP [T15R],-0.474 ± 0.5
16,YWITCCPTCDSDINTWVPFYSTELNKPAMIYCSHGDGHWVHAQCMDLAERTLIHLSAGSNKYYCNEHVEIARALHTP [V11S],-0.437 ± 0.14
17,YWITCCPTCDVDINTWVPFYSTELNKPAMIYCSHGDGHWVHAQCMDLAERTLIHLSAGSNKYYCVEHVEIARALHTP [N65V],0.008 ± 0.047
18,YWITCCPTCDVDINTWVPFYSTELNKPAMIYCSHGDGHWVHAQCMDLAERTLIHLSAGSNKYYCSEHVEIARALHTP [N65S],0.079 ± 0.079
19,YWITCCPTCDVDINTWVPFYSTELNKPAMIYCSHGDGHWVHAQCMDEAERTLIHLSAGSNKYYCNEHVEIARALHTP [L47E],-0.307 ± 0.081
20,YWITCCPTCDVDINTWVPFYSTELNKPAMIYCSHGDGHWVHAQCMDYAERTLIHLSAGSNKYYCNEHVEIARALHTP [L47Y],-0.508 ± 0.15
21,YWITCCPTCDVDINTWVPFYSTELNKPAMIYCSHGDGHWVHAQCMDLAERTLIHLSAGSNKYYCNEIVEIARALHTP [H67I],-0.874 ± 0.31
22,YWITCCPTCDVDINTWVPFYSTELNKPAMIYCSHGDGHWVHAQCMDLAERTLIHLSAGSNKYYCNELVEIARALHTP [H67L],-0.741 ± 0.043
23,YWITCCPTCDVDINTWVPFYSTELNKPAMIYCSHGDGHWVHAQCMDLAERTLIHLSAGSNKYYCNEHREIARALHTP [V68R],-0.163 ± 0.18
